Results on three molecules are retold here after patent publication US9617572B2, “Methods of producing 7-carbon chemicals via aromatic compounds” (INVISTA North America S.á r.l., priority 2012, dated 2017).

Common to all, as to type: biochemical
A short description of test [1]: Carboxylate reductase activity assay (pimelate to pimelate semialdehyde). Conditions: purified enzyme enhanced by sfp gene product, 2 mM pimelate, 1 mM ATP, 1 mM NADPH, pH 7.5, room temperature, 20 min, against empty vector control. The method, then:
A sequence encoding a HIS-tag was added to the genes from Segniliparus rugosus and Segniliparus rotundus that encode the carboxylate reductases of SEQ ID NOs: 4 and 7, respectively (see FIGS. 7C and 7F), such that N-terminal HIS tagged carboxylate reductases could be produced. Each of the modified genes was cloned into a pET Duet expression vector along with a sfp gene encoding a HIS-tagged phosphopantetheine transferase from Bacillus subtilis, both under the T7 promoter. Each expression vector was transformed into a BL21[DE3] E. coli host and the resulting recombinant E. coli strains were cultivated at 37° C. in a 250 mL shake flask culture containing 50 mL LB media and antibiotic selection pressure, with shaking at 230 rpm. Each culture was induced overnight at 37° C. using an auto-induction media.
The pellet from each induced shake flask culture was harvested via centrifugation. Each pellet was resuspended and lysed via sonication, and the cell debris was separated from the supernatant via centrifugation. […]
Enzyme activity assays (i.e., from pimelate to pimelate semialdehyde) were performed in triplicate in a buffer composed of a final concentration of 50 mM HEPES buffer (pH=7.5), 2 mM pimelate, 10 mM MgCl2, 1 mM ATP and 1 mM NADPH. […] The consumption of NADPH was monitored by absorbance at 340 nm.

Test [2] is described as follows: Carboxylate reductase activity assay (N7-acetyl-7-aminoheptanoate to N7-acetyl-7-aminoheptanal). The following applies: purified enzyme enhanced by sfp gene product, 2 mM N7-acetyl-7-aminoheptanoate, 1 mM ATP, 1 mM NADPH, pH 7.5, room temperature, 20 min, against empty vector control. The method, then:
The activity of each of the N-terminal His-tagged carboxylate reductases of SEQ ID NOs: 3, 6, and 7 (see Example 4, and FIGS. 7B, 7E, and 7F) for converting N7-acetyl-7-aminoheptanoate to N7-acetyl-7-aminoheptanal was assayed in triplicate in a buffer composed of a final concentration of 50 mM HEPES buffer (pH=7.5), 2 mM N7-acetyl-7-aminoheptanoate, 10 mM MgCl2, 1 mM ATP, and 1 mM NADPH. The assays were initiated by adding purified carboxylate reductase and phosphopantetheine transferase or the empty vector control to the assay buffer containing the N7-acetyl-7-aminoheptanoate then incubated at room temperature for 20 min. The consumption of NADPH was monitored by absorbance at 340 nm.

A short description of test [3]: Thioesterase enzyme activity assay using pimeloyl-CoA as substrate, forming pimelate. The following applies: 667 μM pimeloyl-CoA, 0.8 μM tesB gene product, pH 7.4, 37° C., 20 min, compared to empty vector control. The method, then: A sequence encoding an N-terminal His tag was added to the tesB gene from Escherichia coli that encodes a thioesterase (SEQ ID NO 1, see FIG. 7A), such that an N-terminal HIS tagged thioesterase could be produced. The modified tesB gene was cloned into a pET15b expression vector under control of the T7 promoter. The expression vector was transformed into a BL21[DE3] E. coli host. The resulting recombinant E. coli strain was cultivated at 37° C. in a 500 mL shake flask culture containing 50 mL Luria Broth (LB) media and antibiotic selection pressure, with shaking at 230 rpm. The culture was induced overnight at 17° C. using 0.5 mM IPTG.
The pellet from the induced shake flask culture was harvested via centrifugation. The pellet was resuspended and lysed in Y-per™ solution (ThermoScientific, Rockford, Ill.). The cell debris was separated from the supernatant via centrifugation. […]
The enzyme activity assay was performed in triplicate in a buffer composed of 50 mM phosphate buffer (pH=7.4), 0.1 mM Ellman's reagent, and 667 μM of pimeloyl-CoA (as substrate). […] The release of Coenzyme A was monitored by absorbance at 412 nm. The absorbance associated with the substrate only control, which contained boiled enzyme, was subtracted from the active enzyme assay absorbance and compared to the empty vector control.

B1: SEQ ID NO 4: Segniliparus rugosus carboxylate reductase, Genbank Accession No. EFV11917.1 (protein, listed as Segniliparus rugosus)
chain: MGDGEERAKRFFQRIGELSATDPQFAAAAPDPAVVEAVSDPSLSFTRYLDTLMRGYAERPALAHRVGAGYETISYGELWARVGAIAAAWQADGLAPGDFVATVGFTSPDYVAVDLAAARSGLVSVPLQAGASLAQLVGILEETEPKVLAASASSLEGAVACALAAPSVQRLVVFDLRGPDASESAADERRGALADAEEQLARAGRAVVVETLADLAARGEALPEAPLFEPAEGEDPLALLIYTSGSTGAPKGAMYSQRLVSQLWGRTPVVPGMPNISLHYMPLSHSYGRAVLAGALSAGGTAHFTANSDLSTLFEDIALARPTFLALVPRVCEMLFQESQRGQDVAELRERVLGGRLLVAVCGSAPLSPEMRAFMEEVLGFPLLDGYGSTEALGVMRNGIIQRPPVIDYKLVDVPELGYRTTDKPYPRGELCIRSTSLISGYYKRPEITAEVFDAQGYYKTGDVMAEIAPDHLVYVDRSKNVLKLSQGEFVAVAKLEAAYGTSPYVKQIFVYGNSERSFLLAVVVPNAEVLGARDQEEAKPLIAASLQKIAKEAGLQSYEVPRDFLIETEPFTTQNGLLSEVGKLLRPKLKARYGEALEARYDEIAHGQADELRALRDGAGQRPVVETVVRAAVAISGSEGAEVGPEANFADLGGDSLSALSLANLLHDVFEVEVPVRIIIGPTASLAGIAKHIEAERAGASAPTAASVHGAGATRIRASELTLEKFLPEDLLAAAKGLPAADQVRTVLLTGANGWLGRFLALEQLERLARSGQDGGKLICLVRGKDAAAARRRIEETLGTDPALAARFAELAEGRLEVVPGDVGEPKFGLDDAAWDRLAEEVDVIVHPAALVNHVLPYHQLFGPNVVGTAEIIRLAITAKRKPVTYLSTVAVAAGVEPSSFEEDGDIRAVVPERPLGDGYANGYGNSKWAGEVLLREAHELVGLPVAVFRSDMILAHTRYTGQLNVPDQFTRLVLSLLATGIAPKSFYQQGAAGERQRAHYDGIPVDFTAEAITTLGAEPSWFDGGAGFRSFDVFNPHHDGVGLDEFVDWLIEAGHPISRIDDHKEWFARFETAVRGLPEAQRQHSLLPLLRAYSFPHPPVDGSVYPTGKFQGAVKAAQVGSDHDVPHLGKALIVKYADDLKALGLL
As to B1, in test [1], the “acceptance of pimelate as substrate (consumption of NADPH, absorbance at 340 nm)” value was “accepted pimelate as substrate”.

B2: SEQ ID NO 6: Mycobacterium massiliense carboxylate reductase, Genbank Accession No. EIV11143.1 (protein)
chain: MTNETNPQQEQLSRRIESLRESDPQFRAAQPDPAVAEQVLRPGLHLSEAIAALMTGYAERPALGERARELVIDQDGRTTLRLLPRFDTTTYGELWSRTTSVAAAWHHDATHPVKAGDLVATLGFTSIDYTVLDLAIMILGGVAVPLQTSAPASQWTTILAEAEPNTLAVSIELIGAAMESVRATPSIKQVVVFDYTPEVDDQREAFEAASTQLAGTGIALETLDAVIARGAALPAAPLYAPSAGDDPLALLIYTSGSTGAPKGAMHSENIVRRWWIREDVMAGTENLPMIGLNFMPMSHIMGRGTLTSTLSTGGTGYFAASSDMSTLFEDMELIRPTALALVPRVCDMVFQRFQTEVDRRLASGDTASAEAVAAEVKADIRDNLFGGRVSAVMVGSAPLSEELGEFIESCFELNLTDGYGSTEAGMVFRDGIVQRPPVIDYKLVDVPELGYFSTDKPHPRGELLLKTDGMFLGYYKRPEVTASVFDADGFYMTGDIVAELAHDNIEIIDRRNNVLKLSQGEFVAVATLEAEYANSPVVHQIYVYGSSERSYLLAVVVPTPEAVAAAKGDAAALKTTIADSLQDIAKEIQLQSYEVPRDFIIEPQPFTQGNGLLTGIAKLARPNLKAHYGPRLEQMYAEIAEQQAAELRALHGVDPDKPALETVLKAAQALLGVSSAELAADAHFTDLGGDSLSALSFSDLLRDIFAVEVPVGVIVSAANDLGGVAKFVDEQRHSGGTRPTAETVHGAGHTEIRAADLTLDKFIDEATLHAAPSLPKAAGIPHTVLLTGSNGYLGHYLALEWLERLDKTDGKLIVIVRGKNAEAAYGRLEEAFDTGDTELLAHFRSLADKHLEVLAGDIGDPNLGLDADTWQRLADTVDVIVHPAALVNHVLPYNQLFGPNVVGTAEIIKLAITTKIKPVTYLSTVAVAAYVDPTTFDEESDIRLISAVRPIDDGYANGYGNAKWAGEVLLREAHDLCGLPVAVFRSDMILAHSRYTGQLNVPDQFTRLILSLIATGIAPGSFYQAQTTGERPLAHYDGLPGDFTAEAITTLGTQVPEGSEGFVTYDCVNPHADGISLDNFVDWLIEAGYPIARIDNYTEWFTRFDTAIRGLSEKQKQHSLLPLLHAFEQPSAAENHGVVPAKRFQHAVQAAGIGPVGQDGTTDIPHLSRRLIVKYAKDLEQLGLL
modifications: Mycobacterium massiliense
With B2, the “acceptance of N7-acetyl-7-aminoheptanoate as substrate (consumption of NADPH, absorbance at 340 nm)” value in test [2] is reported as “accepted N7-acetyl-7-aminoheptanoate as substrate”.

B3: tesB: Escherichia coli thioesterase encoded by tesB, GenBank Accession No. AAA24665.1 (protein, listed as Escherichia coli)
chain: MSQALKNLLTLLNLEKIEEGLFRGQSEDLGLRQVFGGQVVGQALYAAKETVPEERLVHSFHSYFLRPGDSKKPIIYDVETLRDGNSFSARRVAAIQNGKPIFYMTASFQAPEAGFEHQKTMPSAPAPDGLPSETQIAQSLAHLLPPVLKDKFICDRPLEVRPVEFHNPLKGHVAEPHRQVWIRANGSVPDDLRVHQYLLGYASDLNFLPVALQPHGIGFLEPGIQIATIDHSMWFHRPFNLNEWLLYSVESTSASSARGFVRGEFYTQDGVLVASTVQEGVMRNHN
In the case of B3, in test [3], the “acceptance of pimeloyl-CoA as substrate (release of Coenzyme A, absorbance at 412 nm)” value is listed as “acceped pimeloyl-CoA as substrate”.
